# Assays:
# Assay in all cases: alanine scan, flow cytometry, HEK293-T;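 further: antibody binding to each alanine-substituted CD33 mutant expressed transiently in HEK293-T, read as fluorescence minus background, mean of duplicates, relative to wild-type CD33 set as 100%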
# human CD33 K250A = human CD33 K250A (human, UniProt P20138 18-364)
# human CD33 V258A = human CD33 V258A (human, UniProt P20138 18-364)
# human CD33 A261S = human CD33 A261S (human, UniProt P20138 18-364)
# human CD33 G263A = human CD33 G263A (human, UniProt P20138 18-364)
# human CD33 A272S = human CD33 A272S (human, UniProt P20138 18-364)
# human CD33 L275A = human CD33 L275A (human, UniProt P20138 18-364)
# human CD33 F279A = human CD33 F279A (human, UniProt P20138 18-364)
# human CD33 K283A = human CD33 K283A (human, UniProt P20138 18-364)
# human CD33 T284A = human CD33 T284A (human, UniProt P20138 18-364)
# human CD33 R291A = human CD33 R291A (human, UniProt P20138 18-364)
# human CD33 P244A = human CD33 P244A (human, UniProt P20138 18-364)
# human CD33 D298A = human CD33 D298A (human, UniProt P20138 18-364)
# human CD33 T303A = human CD33 T303A (human, UniProt P20138 18-364)
# human CD33 P308A = human CD33 P308A (human, UniProt P20138 18-364)
# human CD33 K313A = human CD33 K313A (human, UniProt P20138 18-364)
# human CD33 S314A = human CD33 S314A (human, UniProt P20138 18-364)
# Sequence of human CD33 S314A (P20138 18-364 S314A limits assumed): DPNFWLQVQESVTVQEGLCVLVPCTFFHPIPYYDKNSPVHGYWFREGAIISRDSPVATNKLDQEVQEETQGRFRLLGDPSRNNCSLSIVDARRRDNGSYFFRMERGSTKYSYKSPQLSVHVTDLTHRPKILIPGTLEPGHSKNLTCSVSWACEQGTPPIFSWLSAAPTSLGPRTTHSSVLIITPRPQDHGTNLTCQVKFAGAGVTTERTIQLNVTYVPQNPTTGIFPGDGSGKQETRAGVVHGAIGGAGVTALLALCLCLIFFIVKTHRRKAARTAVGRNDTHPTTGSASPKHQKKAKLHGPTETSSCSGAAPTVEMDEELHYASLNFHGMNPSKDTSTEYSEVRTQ
# Sequence of human CD33 V258A (P20138 18-364 V258A limits assumed): as the sequence (P20138 18-364 S314A limits assumed) above, with V241A, A297S counted along it
# Sequence of human CD33 L275A (P20138 18-364 L275A limits assumed): as the sequence (P20138 18-364 S314A limits assumed) above, with L258A, A297S counted along it
# Sequence of human CD33 D298A (P20138 18-364 D298A limits assumed): as the sequence (P20138 18-364 S314A limits assumed) above, with D281A, A297S counted along it
# Sequence of human CD33 F279A (P20138 18-364 F279A limits assumed): as the sequence (P20138 18-364 S314A limits assumed) above, with F262A, A297S counted along it
# Sequence of human CD33 A272S (P20138 18-364 A272S limits assumed): as the sequence (P20138 18-364 S314A limits assumed) above, with A255S, A297S counted along it
# Sequence of human CD33 K313A (P20138 18-364 K313A limits assumed): as the sequence (P20138 18-364 S314A limits assumed) above, with K296A, A297S counted along it
# Sequence of human CD33 P308A (P20138 18-364 P308A limits assumed): as the sequence (P20138 18-364 S314A limits assumed) above, with P291A, A297S counted along it
# Sequence of human CD33 R291A (P20138 18-364 R291A limits assumed): as the sequence (P20138 18-364 S314A limits assumed) above, with R274A, A297S counted along it
# Sequence of human CD33 T284A (P20138 18-364 T284A limits assumed): as the sequence (P20138 18-364 S314A limits assumed) above, with T267A, A297S counted along it
# Sequence of human CD33 A261S (P20138 18-364 A261S limits assumed): as the sequence (P20138 18-364 S314A limits assumed) above, with A244S, A297S counted along it
# Sequence of human CD33 P244A (P20138 18-364 P244A limits assumed): as the sequence (P20138 18-364 S314A limits assumed) above, with P227A, A297S counted along it
# Sequence of human CD33 T303A (P20138 18-364 T303A limits assumed): as the sequence (P20138 18-364 S314A limits assumed) above, with T286A, A297S counted along it
# Sequence of human CD33 G263A (P20138 18-364 G263A limits assumed): as the sequence (P20138 18-364 S314A limits assumed) above, with G246A, A297S counted along it
# Sequence of human CD33 K250A (P20138 18-364 K250A limits assumed): as the sequence (P20138 18-364 S314A limits assumed) above, with K233A, A297S counted along it
# Sequence of human CD33 K283A (P20138 18-364 K283A limits assumed): as the sequence (P20138 18-364 S314A limits assumed) above, with K266A, A297S counted along it
Binder,Mean % WT Binding (human CD33 K250A) [% WT binding],Mean % WT Binding (human CD33 V258A) [% WT binding],Mean % WT Binding (human CD33 A261S) [% WT binding],Mean % WT Binding (human CD33 G263A) [% WT binding],Mean % WT Binding (human CD33 A272S) [% WT binding],Mean % WT Binding (human CD33 L275A) [% WT binding],Mean % WT Binding (human CD33 F279A) [% WT binding],Mean % WT Binding (human CD33 K283A) [% WT binding],Mean % WT Binding (human CD33 T284A) [% WT binding],Mean % WT Binding (human CD33 R291A) [% WT binding],Mean % WT Binding (human CD33 P244A) [% WT binding],Mean % WT Binding (human CD33 D298A) [% WT binding],Mean % WT Binding (human CD33 T303A) [% WT binding],Mean % WT Binding (human CD33 P308A) [% WT binding],Mean % WT Binding (human CD33 K313A) [% WT binding],Mean % WT Binding (human CD33 S314A) [% WT binding]
"Refmab #3 (antibody, V domains shown, The alanine scan used IgG or Fab) VH: QVQLVQSGAEVKKPGSSVKVSCKASGYTFTDYNMHWVRQAPGQGLEWIGYIYPYNGGTGYNQKFKSKATITADESTNTAYMELSSLRSEDTAVYYCARGRPAMDYWGQGTLVTVSS VL: DIQMTQSPSSLSASVGDRVTITCRASESVDNYGISFMNWFQQKPGKAPKLLIYAASNQGSGVPSRFSGSGSGTDFTLTISSLQPDDFATYYCQQSKEVPWTFGQGTKVEIK",146,106,121,116,105,123,138,90.9,83.2,97.5,138,80.1,72.7,82.8,137,139
"Refmab #4 (antibody, V domains shown, The alanine scan used IgG or Fab) VH: QVQLVQSGAEVKKPGESVKVSCKASGYTFTNYGMNWVKQAPGQGLEWMGWINTYTGEPTYADKFQGRVTMTTDTSTSTAYMEIRNLGGDDTAVYYCARWSWSDGYYVYFDYWGQGTSVTVSS VL: DIVMTQSPDSLTVSLGERTTINCKSSQSVLDSSTNKNSLAWYQQKPGQPPKLLLSWASTRESGIPDRFSGSGSGTDFTLTIDSPQPEDSATYYCQQSAHFPITFGQGTRLEIK",106,95.8,65.8,99.9,107,99.3,103,84,111,102,100,83.9,81.2,99.8,87.7,95.5
